Source: the nanobody polyreactivity screen of Harvey et al. (2022)

Assay: yeast display, Sf9 membrane polyspecificity reagent, FACS + sequencing; frameworks hold sequencing errors
Procedure, shortened: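 In a synthetic yeast display library (Saccharomyces cerevisiae BJ5465), nanobody expression was induced with galactose for 36–48 hours. FACS gates were set low and high (top ~1%) using anti-HA fluorescence for expression and streptavidin fluorescence for binding of the Sf9 membrane reagent. Each polyreactivity label is drawn from the gate of origin.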

Row | Sequence | polyreactivity (PSR sort gate)
1 | QVHLVESGGGLVQAGGSLRLSSAASGSIFIIYAMGWYRQAPGKERELVADITCRGGDTYYADSVKGRFTISRDNAKNTVYLQMNSLKPEDTAVYYCAARAGYPYTVQDVGVSAYDYWGQGTQVTVSS | low polyreactivity
2 | QVQLVESGGGLVQAGGSLRLSCAASGSTFRLYAMGWYRQAPGEERELVASITFSDSITSYADSVKGRFTISRDNAKNTVYLQMNSLKPEDTAVYYCDKDTSYENVVYTFDYDYWGQGTQVTVSS | low polyreactivity
3 | QVQLVESAGGLVQAGGSLRLSCAASGSIFRLNALGWSRQQPGQVRELVAAITWSDSSTYYADSVKGRFTISRDTAKNTVYLQMNSLKPEDTAVSYCAGDPQSYKYDYWGQGTQVTVSS | low polyreactivity
4 | QVQLVGSGGALVQAGGSLRLSCAASGRTFSYYAMGWYRQAPGKERELVASIRSSRTSTYYADSVKGRFTISRDNAKNTVYLQMNSLKPEDTAVYSCAKRYFTWRSTYNYWGQGTKVTVSS | high polyreactivity
5 | QVQLVESGGGLVQAGGSLRLSCAASGSIFYGNAMGWYRQAPGKERELVADITWSGGSTYYADSVKGRFTISRDNAKNTVYLQMNSLKPEDTAVYYCAAKVKHWYYPYYYWGQGTQVTVSS | low polyreactivity
6 | QVQLVESGGGLVQAGGSLRLSCAASGTFYLYAMGWYRQAPGKERELVARINSSGSTNLRRLCEGALHNFTRQCEEYRLFTDEQPETGRYRVYYCNADTKRSSREYDYWGQGTQVTVSS | low polyreactivity
7 | QVQLVESGGGLVQAGGSLRLICAASGNIFYIYAMVWDRQAPWKERELVAAISWSCCSTYYADSVKGRFTISRDNAKNTVYCQMNSLKPEDTSVYYCDVEFTPKRWVSYRTMYSWGQGTQVTVSS | high polyreactivity
8 | QVQLVESGGGLVQAGGSLRLSCAASGRIFWGYDMGSYRQAPGKQTEFVAAISSGGGRTYYADSVKGRFTISRDNAKNPVYLPMNSLKPEDTAVYYCNAELNWYYYIHLDYWGQGTQVTVSS | low polyreactivity
9 | QVQVVESGGGLVNAAGSLRLSCAPSVSTSKWYTMGWDRQAPGKERELVAAITGSGGSTFYADSVKGRFTISRDNAKNTVYLQMHSLKQEDTAVYYCAADVYGGGVSFRFRYDSWGQGTQVTVSS | low polyreactivity
10 | QVQLVESGGGLVQAGGSLRLSCAASGSTFKRYAMGWSRQAPGKERECVAGITWRGGRTYYADSVKGRFKISRDIAKNTVYLQMNSLKPEDTSVYYCAATFYTSSHLAGYYWGQGTQVTVSS | high polyreactivity
11 | QVQLVESGGGLVQAGGSLRLSCAASGFTFPSNAMGWYRQAPGKERELVAAISSTDSTNYADSVKGRFTISRDNAKNTVYLQMNSLKPEDTAVYYCNADRDDDYDYWGQGTQVTVSS | low polyreactivity
12 | HVQLVESGGGLVQAGGILRLSCAASGRIFYRYEKGWYRQAPGKERELVAAITAGGNKYYADSVKGRFTISRDNAKNTVYLQMNSLKPEDTAVDYCGAGTTYSRYSVTRVDYWGQGTQVTVSS | high polyreactivity
13 | QVQHVESGGGLVQAGGSLRLSSAPSGRTFAYYARGWYRQAPGKERELVAAISNGGSTYYADSVKGRFTISRDNAKNTVFLQMNSLKPEDTAVYFCNAYYSDLYDYWGQGTQVTVSS | low polyreactivity
14 | QDQHVESGGGLVQAGGSLRLSCAASGSTFAWYSMGWYRQAPGKERELVASITSTGSTNYADSVKGRYTISRDNAKNTVYLQMNSLKPVDTAVYYCAAAVRAWYLRLYDYWGQGTQVTVSS | high polyreactivity
15 | QVQLVESGGGLVQAGGSLLLSCAASGRTLFVYDMGWYRQAPGKERELVAAITWGVGSTYYADSVKGRFTISRDNAKNTVYLQLNSLKPEDTAVYYCNAVAIRYYRWYYYWGQGTQVTVSS | high polyreactivity
16 | QVQLVESGGGLVQAGGSLRLSCAASGSLFSAYAMGWYRQAPGKEREFVAAITRRGGNTYYADSVKGRYTISRDNAKNTVYLQMNSLKPDDTAVYYCAADAGGGPFDYCGQGTQVTVSS | low polyreactivity
17 | QVQLVESGGGLVQAGGSLRLSCAASGRTLRVNTMGWYRQAPGKERELVAAISSGGSRTNYADSVKGRFTISRDNAKNTVYLQMNSLKPEDTAVYYCNKYNRFVYSPPSVYWGQGTQVTVSS | high polyreactivity
18 | QVQLVESGGGLVQPGGSLRLSCAASGSIFYRNAMGWYRQAPGKERELVAAITWSGVNTYYADSVKGRFTISRDNAKNTVYLQMNSLKPEDTAVYYCAVPSRYWLNRGFDYWGQGTQVTVSS | low polyreactivity
19 | QVQLVESGGGLVQAGGSLRLSCAASGYTFRYYAMGWYRQAPGKERELVAAINWSGGSTYYADSVKGRFTISRDNAKNTVYLQNNSLKPEDTAVYYCAADPDGDLDIDYDYWGLGTQVTVSS | low polyreactivity
20 | QGKLVESGGGLVQAGGSLRLSCAASGLTFGSNTMGGYRQAPGKERELVAAITSNGGSTYYADSVKGRFTISRDNAKNTVYVQMNSLKPEDTAVYYCAARSYDGYYRYYYWGQGTQVTVSS | low polyreactivity
21 | QVQLVESGGGLVQAGGSLRLSCAASGSIFGGYGMGWYRQAPGKERELVAVITKRGGSTYYADSVKGRFTISRDNAKNTVYLQMNSLKPEDTAVYYCNADYRRYPEFDYWGQGTQVTVSS | high polyreactivity
22 | QVQRVESGGGLVQAGGSLRLSCAASGSIFVFYAMGWYRQAPGKERELVATISSVGRTNYADSVKGRFTISRDNAKNTVYLQMNSLKPEDTAVYYCAARRFRGSYYWGQGTQVTVSS | high polyreactivity

Row | Sequence | polyreactivity (PSR sort gate)
23 | QVQLVESGGGLVQAGGSLRLSCAASGGTFPQNLMGWYRQAPGQERELVAAISSGGSTYYADSGKGRFTISRDNAKNSVYLQMNSLKPEDTAVYYCAKRRWYRYDYWGQGTQVTVSS | high polyreactivity
24 | QVQLVESGGGLVQAGGSLRLSCAASGLTFQLYAMGWYRQAPGKERELVAAISGSGGRTYYADSVKGRFTISRDNGKNTVYLLMNRLKPEDTAVYYCAARPGSGRSYTSDYWGQGTQVTVSS | high polyreactivity
25 | QVQLVESGGGLVQAGGSLRLSCAASGSTFSGYAMGWYRQAPGKERELVAAITSSGGRTYYADSVKGRFTISRDNAKNTVYLQMNSLKPEDTAVYYCAALYYHEYDYWGQGTQVTVSS | low polyreactivity
26 | QVQLVESGGGLVQAGGSLRLSCAASGFIFSLYAMGRYRQATGKERELVAVITWSDGRTYYADSVKGRFTISRDNAKNTVYLQMNSLKPEDTAVYYCAAADWITEYDYWGQGTQVTVSS | low polyreactivity
27 | QVQLVESGGGLVQAGGRLRLSCAASGRIFGKNVMGWYRQAPGKERELVAAISSGGSTYADSVKGRFTISRDNAKNTFYLQMNSLKPEDTAVYYCNTRPRLYGYRPSQYTYDYWGQGTQVTVSS | high polyreactivity
28 | QVQLVESGGGLVQAGGSLRLTCAASGRTFRTYAMGWYRQAPGKERELVAAITSGGNTYYADSVKGRFTISRDNAKNTVYLQMNSLKPEDTAVYYCAAVQYFKVSYWGQGTQVTVSS | high polyreactivity
29 | QVQLVESGGGLVQAGGSLRLSCAASGSTFSSNAMGWYRQAPGKERELVAAINRRGGTYYADSVKGRFTISRDNAKNTVYLQMNSLKPEDTAVYYCAAASPYHEYDYCGQGTQVTVSS | low polyreactivity
30 | QEHLQESGGGLVQAGGDLRLSSPSSGNIFRDYISGCYRQAPGKEREFAAGIDRGANTNYADSVKGRFTISRDNAKNTVYLQMISLKPVDTAVYYCGVHTAIVPEFIYWGQGTQVTVSS | low polyreactivity
31 | QVQLVESGGGLVQAGGSLLLSCAASGFTFSVYAMGWYRQEPGKERELVAAINFSGGNTFYADSVKGRFTISRDYAKNTVYLQMNSLKPEDSAVYYCAAEDYKITRYVVRWYEYWGQGTQVTVSS | high polyreactivity
32 | QVQLVESGGGLFQAGGSLRISFAASGRIFGVNAMGWYRQAPGTQSELVAAISAGGGNTYYADSVKGRFTISRDNAKNTVYLQMNRLKPEDTAVYFCNVQRSLRMDFWGQGTQVTVSS | high polyreactivity
33 | QVQLVESGGGLVQAGGSLRLSCAASGRIFYPNAMGWYRPAPGKVRELVAGISRSGGSTYYADSVKGRFTLSRDNAKNTVYLQKNSLKPEDTAVYYCAARYYASDRHFRGDYWGQGTQVTVSS | low polyreactivity
34 | QVQLVESGGGLVQAGGSLSLSCAASGFIFLASAMGWYRQAPGKERELVAAISSGSSTSYADSLKGRFTISRDNAKNTVYLQMNSLKPEDTAVYYCNAVPSFANLTWESYDYWGQGTQVTVSS | low polyreactivity
35 | QVQLVESGGGLVQAGGSLRLICAASGSIFYYYAMVWYRQAPGKERELVAAISSGGSTNYADSVKGRFTISRDNAKNTVYLQMNSLKPEDTAVYYCAADYRAQYVVWYTYDYWGQGTQVTVSS | low polyreactivity
36 | QVQLVESGGGLVQAGGSLRLSCAASGITFILYDMGWYRQAPGKERELVAGITSGDGDSTYYADSVKGRFTISRDNAKNTVYLQMNSLKPEDTAVYYCAADFTVGYYREYYYWGQGTQVTVSS | low polyreactivity
37 | QVQLVESGGGLVQAGGSLRLSCAASGRNFHKYAMGWYRQAPGKERELVAAITGSGVRTYYADSVKGRFTISRDNAKNTVYLQMNSLKPEDTAVYYCNADSYYGNGDYWGQGTQVTVSS | high polyreactivity
38 | QVQLVESGGGLVQAGGSLRLSCAASGGTFATYAMGWYRQAPGKERELVATIRSGGSTYYADSVKGRFTISRDNAKNTVYLQMNSLKPEDTAVYYCNARAYHKGFYRITYYYWGQGTQVTVSS | high polyreactivity
39 | QVQLVESGGGLVQAGGSLRLSCAASGGIFNSNAMGWYRQAPGKEREFVAAITRSGTSTYYADSVKGRFTISRDNAKNSVYLQMNSLKPEDTAVYYWAADYRYRRYRGHVSNLYYWGQGTQVTVSS | low polyreactivity
40 | QVQLVESGGGLVQAGGSLRLSCAASGITFWGYAMGWYRQAPGKERELVAAISKTGGSTYYADSVKGRFTISRDNAKNTVYLQMNSLKPEDTAVYYCNTVTANGDFGYWGQGTQVTVSS | low polyreactivity
41 | QVQLVESGGGLVQAGGSLRLSCAASGRIFIGYAMGWYRQAPGKERELVAAITSGGGTYYADSVKGRFTISRDNAKNTVYLQMNSLKPEDTAVYYCAAAQRYPIKYYYWGQGTQVTVSS | low polyreactivity
42 | QVQLEESGGGLVQAGGSLRLSCAASGRNLEVYAMGWNRKAPGKERELVAAIRWSDGNTYYADSVKGRFTISRDIAKNTVYLQMNSLKPEDTAVYYCAARTPGGYDWGQGTQVTVSS | high polyreactivity
43 | QVHLVESGGGLVQAGGSLRLSCAASGRTFRLYAMGWYRQAPGKERELVAAITRGGRTNYADSVKGRFTISRDNAKNTVFLQMISLKPEDTAVYYCAARYVERHTDYYYWGQGTQVTVSS | low polyreactivity
